In the series the test system is Escherichia coli TOP10. As to the kind of experiment: shrunken log2 fold change of peptide-encoding DNA abundance (4.5 h post-induction vs induction); higher = less antimicrobial activity (less host growth inhibition). The conditions noted are these: time post-induction: 4.5 h; library: site-saturation at positions 5, 18, 19, 20.
Regarding RRIRVRPPRLPRPRPRPMENPRP, the “shrunken log2 fold change” value was -0.0625. In the case of RRIRQRPPRLPRPRPRPIKTPRP it was -0.0201; in that of RRIRNRPPRLPRPRPRPCMMPRP, -0.325. Then RRIRKRPPRLPRPRPRPHAFPRP, with 0.106; and RRIRQRPPRLPRPRPRPGGEPRP, with 0.218. Take RRIRRRPPRLPRPRPRPVHIPRP: the “shrunken log2 fold change” value was -0.0107. In the case of RRIRGRPPRLPRPRPRPPDNPRP it was 0.795; in that of RRIRTRPPRLPRPRPRPEWLPRP, 0.203. Consider RRIRFRPPRLPRPRPRPNVDPRP, for which the “shrunken log2 fold change” value is -0.0445. Then RRIRIRPPRLPRPRPRPELHPRP, with -0.2. Then RRIRHRPPRLPRPRPRPFYHPRP, with -0.126; and RRIRPRPPRLPRPRPRPIFDPRP, with -0.137. Then RRIRWRPPRLPRPRPRPEYKPRP, with 0.472; and RRIRLRPPRLPRPRPRPQMHPRP, with -0.295.

In the case of RRIRPRPPRLPRPRPRPHWVPRP, the “shrunken log2 fold change” value was -0.137. Regarding RRIRFRPPRLPRPRPRPVTNPRP, the “shrunken log2 fold change” value was -0.0718. Then RRIRFRPPRLPRPRPRPHINPRP, with -0.634; and RRIRCRPPRLPRPRPRPIFPPRP, with 0.247; and RRIRRRPPRLPRPRPRPKWHPRP, with 0.593. Then RRIRRRPPRLPRPRPRPEDYPRP, with 0.252; and RRIRVRPPRLPRPRPRPNTLPRP, with -0.478. Then RRIRGRPPRLPRPRPRPQDYPRP, with -0.0805; and RRIRKRPPRLPRPRPRPVCKPRP, with 0.0228.

For the sequence RRIRRRPPRLPRPRPRPPFRPRP, the “shrunken log2 fold change” value came out at 0.631. As for RRIRMRPPRLPRPRPRPYNLPRP, the “shrunken log2 fold change” value came to 0.227. Then RRIRYRPPRLPRPRPRPWHRPRP, with -0.172. Then RRIRMRPPRLPRPRPRPRVYPRP, with 0.0557; and RRIRWRPPRLPRPRPRPRKWPRP, with 0.526.

For the sequence RRIRYRPPRLPRPRPRPCIWPRP, the “shrunken log2 fold change” value was -0.176. In the case of RRIRLRPPRLPRPRPRPMLHPRP it was -0.34; in that of RRIRIRPPRLPRPRPRPYNPPRP, -0.276. In the case of RRIRGRPPRLPRPRPRPNVFPRP it was 0.27. In the case of RRIRWRPPRLPRPRPRPHAQPRP it was 0.0298; in that of RRIRRRPPRLPRPRPRPMFAPRP, 0.24; in that of RRIRWRPPRLPRPRPRPSQEPRP, 0.0253.

As to RRIRCRPPRLPRPRPRPYFHPRP, the “shrunken log2 fold change” value is -0.233. In the case of RRIRQRPPRLPRPRPRPRPYPRP it was -0.357; in that of RRIRCRPPRLPRPRPRPHTPPRP, 0.0337. For the sequence RRIRLRPPRLPRPRPRPHAHPRP, the “shrunken log2 fold change” value was -0.506. In the case of RRIRPRPPRLPRPRPRPVRRPRP it was 0.418.

RRIRGRPPRLPRPRPRPFNGPRP: the “shrunken log2 fold change” value worked out at 0.0458.

For the sequence RRIRARPPRLPRPRPRPWTFPRP, the “shrunken log2 fold change” value is -0.0754.

In the case of RRIRKRPPRLPRPRPRPITWPRP, the “shrunken log2 fold change” value was determined as 0.0399.

With RRIRDRPPRLPRPRPRPIRHPRP, the “shrunken log2 fold change” value is -0.0425. For RRIRCRPPRLPRPRPRPGKTPRP, the “shrunken log2 fold change” value was determined as 0.102.

For the sequence RRIRQRPPRLPRPRPRPKQFPRP, the “shrunken log2 fold change” value worked out at 0.102. Then RRIRKRPPRLPRPRPRPNKGPRP, with 0.0232.

On to RRIRMRPPRLPRPRPRPVFLPRP, for which the “shrunken log2 fold change” value is 0.0386. Then RRIRFRPPRLPRPRPRPIQKPRP, with 0.00595.

As for RRIRTRPPRLPRPRPRPKWMPRP, the “shrunken log2 fold change” value turned out to be 0.00414. With RRIRHRPPRLPRPRPRPGMRPRP, the “shrunken log2 fold change” value amounted to 0.163. Then RRIRDRPPRLPRPRPRPKETPRP, with -0.0231; and RRIRCRPPRLPRPRPRPDICPRP, with -0.22. RRIRPRPPRLPRPRPRPQWGPRP: the “shrunken log2 fold change” value was 0.132. In the case of RRIRCRPPRLPRPRPRPIITPRP it was -0.892; in that of RRIRQRPPRLPRPRPRPNAWPRP, 0.0879. Then RRIRDRPPRLPRPRPRPHRWPRP, with 0.00819; and RRIRGRPPRLPRPRPRPFIFPRP, with 0.516; and RRIRARPPRLPRPRPRPFCWPRP, with 0.401. Then RRIRRRPPRLPRPRPRPIEQPRP, with 0.0304; and RRIRNRPPRLPRPRPRPREYPRP, with 0.0336. As to RRIRCRPPRLPRPRPRPWWLPRP, the “shrunken log2 fold change” value is -0.0111.

On to RRIRWRPPRLPRPRPRPCNTPRP, for which the “shrunken log2 fold change” value is -0.169. In the case of RRIRKRPPRLPRPRPRPQIAPRP it was -0.11; in that of RRIRHRPPRLPRPRPRPPLTPRP, 0.162. As for RRIRSRPPRLPRPRPRPCCVPRP, the “shrunken log2 fold change” value came to 0.0729. Then RRIRWRPPRLPRPRPRPPIRPRP, with -0.0117; and RRIRLRPPRLPRPRPRPYRIPRP, with -0.796. In the case of RRIRRRPPRLPRPRPRPTSWPRP it was 1.52; in that of RRIRVRPPRLPRPRPRPKMCPRP, -0.00991; in that of RRIRFRPPRLPRPRPRPIDFPRP, -0.0919.

With RRIRWRPPRLPRPRPRPPYIPRP, the “shrunken log2 fold change” value was -0.3. With RRIRGRPPRLPRPRPRPWMPPRP, the “shrunken log2 fold change” value amounted to 0.105. In the case of RRIRERPPRLPRPRPRPTAGPRP it was 0.161; in that of RRIRFRPPRLPRPRPRPSHMPRP, -0.255. In the case of RRIRKRPPRLPRPRPRPRGWPRP it was 0.792; in that of RRIRGRPPRLPRPRPRPIDFPRP, -0.0475; in that of RRIRCRPPRLPRPRPRPESHPRP, 0.0129. In the case of RRIRDRPPRLPRPRPRPCFGPRP it was -0.112; in that of RRIRERPPRLPRPRPRPVWHPRP, -0.154; in that of RRIRPRPPRLPRPRPRPNCIPRP, -0.134. In the case of RRIRKRPPRLPRPRPRPYATPRP, the “shrunken log2 fold change” value was 0.0656.

For RRIRGRPPRLPRPRPRPMCCPRP, the “shrunken log2 fold change” value stood at 0.164.

Regarding RRIRHRPPRLPRPRPRPYAWPRP, the “shrunken log2 fold change” value was -0.0931. In the case of RRIRCRPPRLPRPRPRPRWAPRP it was 0.453; in that of RRIRARPPRLPRPRPRPLAIPRP, 0.397; in that of RRIRARPPRLPRPRPRPCAPPRP, 0.384. In the case of RRIRWRPPRLPRPRPRPWRLPRP it was -0.172; in that of RRIRMRPPRLPRPRPRPVYIPRP, -0.0842; in that of RRIRNRPPRLPRPRPRPSHNPRP, -0.643. Then RRIRVRPPRLPRPRPRPRWIPRP, with -0.0863.

As to RRIRWRPPRLPRPRPRPSMGPRP, the “shrunken log2 fold change” value was determined as 0.033. In the case of RRIRQRPPRLPRPRPRPSDHPRP it was -0.298; in that of RRIRWRPPRLPRPRPRPTTTPRP, 0.567; in that of RRIRRRPPRLPRPRPRPSFWPRP, 0.38. Then RRIRQRPPRLPRPRPRPKFPPRP, with 0.118; and RRIRNRPPRLPRPRPRPDGGPRP, with -0.323; and RRIRRRPPRLPRPRPRPWQSPRP, with -0.0153. In the case of RRIRWRPPRLPRPRPRPACIPRP it was 0.0736; in that of RRIRMRPPRLPRPRPRPEMNPRP, 3.59; in that of RRIRKRPPRLPRPRPRPYYIPRP, -0.372. Take RRIRPRPPRLPRPRPRPLVAPRP: the “shrunken log2 fold change” value stood at 0.101.

RRIRCRPPRLPRPRPRPHVDPRP: the “shrunken log2 fold change” value is -0.617. Then RRIRERPPRLPRPRPRPHHEPRP, with -0.191. In the case of RRIRTRPPRLPRPRPRPHELPRP it was -0.125; in that of RRIRSRPPRLPRPRPRPSWIPRP, -0.363; in that of RRIRRRPPRLPRPRPRPQTFPRP, 0.264. In the case of RRIRMRPPRLPRPRPRPMMYPRP it was -0.0758; in that of RRIRYRPPRLPRPRPRPTKSPRP, -0.517. Regarding RRIRFRPPRLPRPRPRPAKTPRP, the “shrunken log2 fold change” value is -0.0138. In the case of RRIRWRPPRLPRPRPRPNHEPRP it was -0.197. In the case of RRIRSRPPRLPRPRPRPGARPRP it was 0.492; in that of RRIRFRPPRLPRPRPRPAPEPRP, 0.81. In the case of RRIRSRPPRLPRPRPRPQAMPRP it was 0.182; in that of RRIRWRPPRLPRPRPRPENWPRP, 0.254; in that of RRIRGRPPRLPRPRPRPHWWPRP, 0.66. For RRIRCRPPRLPRPRPRPNRTPRP, the “shrunken log2 fold change” value is -0.0547. In the case of RRIRTRPPRLPRPRPRPNFIPRP it was -0.457; in that of RRIRHRPPRLPRPRPRPHVRPRP, -0.0157; in that of RRIRFRPPRLPRPRPRPKNKPRP, -0.384. In the case of RRIRFRPPRLPRPRPRPAKLPRP it was -0.263; in that of RRIRPRPPRLPRPRPRPIDIPRP, -0.252; in that of RRIRMRPPRLPRPRPRPMGEPRP, 0.792. Take RRIRCRPPRLPRPRPRPCCNPRP: the “shrunken log2 fold change” value is -0.188. In the case of RRIRDRPPRLPRPRPRPAASPRP it was 0.049.
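Note: peptides expressed intracellularly from a pBAD plasmid library in pooled LB shake-flask culture, induced with 0.3% L-arabinose, DNA abundance read by NGS, three biological replicates, DESeq2 with apeglm shrinkage.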
